Results published in article PMC8273886, “Design of a Stable Cyclic Peptide Analgesic Derived from Sunflower Seeds that Targets the κ-Opioid Receptor for the Treatment of Chronic Abdominal Pain” (Journal of Medicinal Chemistry, 2021).
Bridge positions count the residues as written; N and C are the ends. Square brackets hold non-standard residues; d marks the D form. dNle = CCCC[C@@H](N)C(=O)O

B1: helianorphin-4 (peptide)
peptide: cyclo(CTKSIPPICYGGFLRRI)
modifications: disulfide 1-9 (inferred)
notes: source: synthetic peptide (Fmoc chemistry, backbone cyclised, oxidised, RP-HPLC purified)
B2: helianorphin-19 (peptide)
peptide: cyclo(CYGGFLRRCIRPKLK)
modifications: disulfide 1-9 (inferred)
notes: dyn A 1–13 divided into two fragments (YGGFLRR and IRPKLK) placed in the two loops of the SFTI-1 scaffold; source: synthetic peptide (Fmoc chemistry, backbone cyclised, oxidised, RP-HPLC purified)
B3: helianorphin-2 (peptide)
peptide: cyclo(CTKSIPPICYGGFLRRIRPKLK)
modifications: disulfide 1-9 (inferred)
notes: as for B1
B4: helianorphin-3 (peptide)
peptide: cyclo(CYGGFLRRICFPDGR)
modifications: disulfide 1-10 (inferred)
notes: as for B1
B5: helianorphin-18 (peptide)
peptide: cyclo(CTYGGFLRCRIRPKLK)
modifications: disulfide 1-9 (inferred)
notes: dyn A 1–13 divided into two fragments (YGGFLR and RIRPKLK) placed in the two loops of the SFTI-1 scaffold; source: synthetic peptide (Fmoc chemistry, backbone cyclised, oxidised, RP-HPLC purified)
B6: sunflower trypsin inhibitor-1 (SFTI-1) (peptide)
peptide: cyclo(CTKSIPPICFPDGR)
modifications: disulfide 1-9 (inferred)
notes: SFTI-1, 14-residue cyclic peptide from the seeds of sunflower (Helianthus annuus); The methods say that all peptides were synthesised; source: synthetic peptide (Fmoc chemistry, backbone cyclised, oxidised, RP-HPLC purified)
B7: helianorphin-12 (peptide)
chain: cyclo(CT[dF][dF][dNle][dR]PICFPDGR)
modifications: disulfide 1-9 (inferred)
B8: helianorphin-1 (peptide)
peptide: cyclo(CYGGFLRRIRPKLKCFPDGR)
modifications: disulfide 1-15 (inferred)
B9: helianorphin-8 (peptide)
peptide: cyclo(CTYGGFPICFPDGR)
modifications: disulfide 1-9 (inferred)
notes: SFTI-1 scaffold with dyn A 1–4 (YGGF) grafted after CT; source: synthetic peptide (Fmoc chemistry, backbone cyclised, oxidised, RP-HPLC purified)
B10: helianorphin-9 (peptide)
peptide: cyclo(CTASIPPICYGGFR)
modifications: disulfide 1-9 (inferred)
notes: SFTI-1 scaffold (K replaced with A) with dyn A 1–4 (YGGF) grafted after the second Cys; source: synthetic peptide (Fmoc chemistry, backbone cyclised, oxidised, RP-HPLC purified)
B11: helianorphin-10 (peptide)
peptide: cyclo(CT[dF][dF][dL][dK]PICFPDGR)
modifications: disulfide 1-9 (inferred)
notes: as for B1
B12: helianorphin-11 (peptide)
peptide: cyclo(CTASIPPIC[dF][dF][dL][dK]R)
modifications: disulfide 1-9 (inferred)
notes: as for B1
B13: helianorphin-13 (peptide)
chain: cyclo(CTASIPPIC[dF][dF][dNle][dR]R)
modifications: disulfide 1-9 (inferred)
B14: helianorphin-5 (peptide)
peptide: cyclo(CYGGFLRICFPDGR)
modifications: disulfide 1-9 (inferred)
notes: SFTI-1 scaffold with dyn A 1–6 (YGGFLR) grafted after the first Cys; source: synthetic peptide (Fmoc chemistry, backbone cyclised, oxidised, RP-HPLC purified)
B15: helianorphin-6 (peptide)
peptide: cyclo(CTYGGFLRCFPDGR)
modifications: disulfide 1-9 (inferred)
notes: SFTI-1 scaffold with dyn A 1–6 (YGGFLR) grafted after CT; source: synthetic peptide (Fmoc chemistry, backbone cyclised, oxidised, RP-HPLC purified)
B16: helianorphin-7 (peptide)
peptide: cyclo(CTASIPPICYGGFLR)
modifications: disulfide 1-9 (inferred)
notes: SFTI-1 scaffold (K replaced with A) with YGGFL grafted after the second Cys; source: synthetic peptide (Fmoc chemistry, backbone cyclised, oxidised, RP-HPLC purified)

Each binder was assayed against T1, mouse κ-opioid receptor (KOR) tagged with EGFP (mouse, UniProt P33534 1-380) (assay: radioligand binding; concentration-dependent competition against 1 nM [3H]-diprenorphine on membranes (7 μg/assay) of HEK293 cells stably expressing the mouse KOR; 50 mM Tris–HCl pH 7.4, 10 mM MgCl2, 0.1% BSA; 1 h at 37 °C; Ki from IC50 by Cheng and Prusoff). Conditions: one partner purified.
T1 construct: κ-opioid receptor, mouse; cloned into the pEGFP-N1 vector with BamHI and HindIII; read as EGFP at the receptor's C-terminus; also called mouse KOR; KOR-EGFP; source: HEK293, stably expressing (membrane preparations; whole cells for cAMP); HEK293, transiently transfected (BRET); not shown: EGFP, C-terminal, kept

| Binder | Ki [nM] |
| --- | --- |
| B1 | 2500 |
| B2 | 21 |
| B3 | 97 |
| B4 | 3200 |
| B5 | 650 |

The binders below were run against T1, mouse κ-opioid receptor (KOR) tagged … (assay: radioligand binding; three concentrations of SFTI-1 (μM), displacement of 1 nM [3H]-diprenorphine on membranes of HEK293 cells stably expressing the mouse KOR). Conditions: one partner purified.

| Binder | Ki [nM] |
| --- | --- |
| B6 | > 30000 |

The binders below were run against T1, mouse κ-opioid receptor (KOR) tagged … (assay: cell-based or functional assay). Conditions: not given.

| Binder | cAMP inhibition in HEK293 cells stably expressing the mouse KOR, EC50 [nM] | cAMP inhibition in HEK293 cells stably expressing the mouse KOR, Emax [%] |
| --- | --- | --- |
| B1 | 4700 | 87.8 |
| B7 | – | 117 |
| B2 | 45 | 108 |
| B8 | – | 106 |
| B3 | 1300 | 102 |
| B4 | 1400 | 85.1 |

The binders below were run against T1, mouse κ-opioid receptor (KOR) tagged … (assay: radioligand binding; two-point displacement: 1 nM [3H]-diprenorphine with or without 10 μM or 100 nM peptide on membranes of HEK293 cells stably expressing the mouse KOR). Conditions: one partner purified.

| Binder | Ki [nM] |
| --- | --- |
| B9 | > 10000 |
| B10 | > 10000 |
| B11 | > 10000 |
| B12 | > 10000 |
| B13 | > 10000 |
| B14 | > 10000 |
| B15 | > 10000 |
| B16 | > 10000 |

These binders were tested against T2, mouse μ-opioid receptor (MOR) (mouse, UniProt P42866 1-398) (assay: radioligand binding; competition against [3H]-diprenorphine on membranes of HEK293 cells stably expressing the mouse MOR (50 μg) or DOR (20 μg); 50 mM Tris–HCl pH 7.4, 10 mM MgCl2, 0.1% BSA; 1 h at 37 °C). Conditions: one partner purified.
T2 construct: μ-opioid receptor, mouse; the construct is not described; source: HEK293, stably expressing, membrane preparations

| Binder | Ki [nM] |
| --- | --- |
| B2 | > 10000 |

What follows are binders tested against T3, mouse δ-opioid receptor (DOR) (mouse, UniProt P32300 1-372) in the same assay as above. Conditions: one partner purified.
T3 construct: δ-opioid receptor, mouse; the construct is not described; source: HEK293, stably expressing, membrane preparations

| Binder | Ki [nM] |
| --- | --- |
| B2 | > 10000 |

Target: T1, mouse κ-opioid receptor (KOR) tagged …
Assay: cell-based or functional assay
Conditions: not given
Remark: another data set of the same source

| Binder | β-arrestin-2 recruitment to the KOR (BRET, HEK293 cells with mouse KOR-EGFP and β-arrestin-2-nano-luciferase), EC50 [nM] |
| --- | --- |
| B2 | 1400 |
